# The DeepSol protein solubility set
# Assay: soluble on expression in E. coli; label from the status in PepcDB or PDB records
row,Sequence,soluble on expression in E. coli
1,MGEGIGRVFFLKDEVGFQPLSNHQGLVVKLLESWREGDEPLALSPKTKERLLLAARYHDDGKRFTFHIVPDGKGGLTYSFRGHRFRVAQAVQDPYAQALIRGHHDYSTREVVNLAADFLEEGLGHRFPEDLFLLMMADQLEAELAVRLWQRRAGEVRPFVEFDLLPDGEGGFLLDPWPFRVDEVALDFLVYFHPYRGEEAKVVEGWGRALVGALEEGKVPEAFREEKRRVRLRPWAAGARKADDPEAFYDRFGLKPTPFQREVFKVAEGDPAHLLLAPTGTGKTEAAAFPALARGERLVFVLPTRSLVDDLEGRFRCYLKILAQEEGRPKALVVDTGHRQARFRFSPDGQEEATKERHLYHADVILTTLDKLLYRYFGYAEGVKSYTFPRRIHDRRTLFVFDEVHLYEATAWVNFRHLIASLYKAGVRFLVMSATMPGTYREELLLEGTLEHPAAKRPSRVLRYMPQGNPMEIIQSHRGKRVLVVLEEVKEAAELYKRLKGEGVFLYHGRLAEGQRRRVFGEVKRRDKAQEPYLLITTPAIEVGVDLDAEVLVTTLCPPENLLQRLGRVNRRGGGQGEAYVVGETYPDYLGSLPEGYLELLKALDGQDLAQGGEERLRQAIRYPKYLDPRAETFFEALQDYVYGLDLTQEPLHRKGFVATRGWTPSVRLRQGEDEVEVPIDRLVGRKEELTPVRVVERLLTDGETGNRRREEVPLRSGELYGRELVLNYPYPYDPELGFVELPKVFQRLRHPDPQRVQLLYAPEKDAGEAPEGVMDTDQVTGGGRRVLWYLGESAWAEPAKSGEVAEETEEEEEEGD,soluble
2,MGSDKIHHHHHHMHKFNPDRIQIGISACLLGEQVRFDGGHKNSAYCQQELKPHFDFVPVCPEMAIGLGAPRKSIRQVRIEGEIRVRSADGSIDVTEQLQSFCNNKADGLGFLGGYLFCSKSPTCGMERVPVYKADGSGGFKEGVGVFAAALMKRFPHLPVEEEGRLHDLVIRENFFTRVYAYHDWHCMRLKGLTRKALTDFHARYKYLLLSHSPAIYRTLGPLLAGDGELEAVADSYFDGFMTALRHKASRRNHTSALQHIQGYFKKFLSGSQKAELSDAILAYRQGVQPLLVPITLIRHYLREHPNDYIAAQVYLNPHPDSLRLRYAY,not soluble
3,MKYCKFCCKAVTGVKLIHVPKCAIKRKLWEQSLGCSLGENSQICDTHFNDSQWKAAPAKGQTFKRRRLNADAVPSKV,soluble
4,SITDILSAEDIAAALQECQDPDTFEPQKFFQTSGLSKMSASQVKDIFRFIDNDQSGYLDGDELKYFLQKFQSDARELTESETKSLMDAADNDGDGKIGADEFQEMVHS,soluble
5,MAELLPLSPVPLYTQLKELLRERILDGTYPSHSRMPSESELGKAFDVSRITVRQALGDLQKEGLIFKIHGKGTFVAKPKAFQNVSTLQGLGESMTQMGYEVINRLRSFRHVPANALVAARLQVEEGSLVTEIRRVRLINREPVSLELTWLPKAVGEKLEKADLVTRDIFLLLENDCGIALGHADLAIDAVLADSDLTQALDVEEGSPIMRIERLTHAADGTPLDFEHLYYRGDAFQYRLRIDRQKGGKA,not soluble
6,MEHFLQYVWQHRLYSSLSYGADAFFLEPEVIDPGMLNRDSGPDFFNAKVKVGDLLWAGNVEIHCRASDWVRHGHHLDPAYDNVVLHVVETDDLPIRHRISGEPVPVCVMHVDERLRANADFMLRTSLLPGCKDRLHELDSLEVHDWLDTLVVERLERKAAEVDRLYLSTSMDWNATAYILLARHFGFGLNNDALERLARSLPFAAIAKHRSNLLQVEALLLGQAGLLADLEDEYAEKLASEYAFLRHKFDLQPLDPSLFRLHRARPASFVHRRLGQLAAILHRCEFLFSSFVETVSAKELAQKLSVEASSYWASHYRFGKPTPVPSRSTLAAISSDALLINVAAPLRYAWLRGQSMEDYRERTIDFLRGIKPENNKPVRAFSQICRPADAAESQALIQLYREYCERRKCFFCRWGYRLLSCCKG,not soluble
7,EQAEAQLAELDLLASMFPGENELIVNDQLAVAELKDCIEKKTMEGRSSKVYFTINMNLDVSDEKMAMFSLACILPFKYPAVLPEITVRSVLLSRSQQTQLNTDLTAFLQKHCHGDVCILNATEWVREHASGYVSRDTSS,soluble
8,MGSDKIHHHHHHMKFFNREKEINKILSIIEGEPNNIYFIYGSLNSGKSTLMREIVVNRLDISKYIPFFIDFRTRNILNVDNFIECLFEVDEKSEIDDFREYAKSLADLLVKGSEEISKYYLGMPIKIPKPFFDKIFNKKDKSADVYQYIEYLFAKLNEKGKKPILIFDELQMIKEITLNGNRKLLWSLFQFLVALTKVQHLCHVFCLSSDSLFIEYVYKTGELEGRADYILVDDFDKQTALKFIDFLAKEILNKKLPKDEKELIYSYVGGKPVLIIKVIDKLRYENLNDILDFMLKDATQKLKYFLNDLDYIKPKVEVGDEVIELKKEDIVKALKLFKDSYEISDSEVAKPIYVYLVKKNILFLNPIEGILKPQSFLIWNAIKRLL,not soluble
9,MGSDKIHHHHHHMLETYALKNGAVFISDAHFLPKSPHLIHTLKELLSAKPPQVFFMGDIFHVLVGYLPLDKEQQKIIDLIHALSEISQVFYFEGNHDFSMRFVFNSKVMVFERQNQPVLFQYDNKRFLLAHGDLFITKAYEFYITQLTSTWARFFLTFLNLLSFKTLYPLFKKLIYQKPVRLWELEPKELQSFIEKRLKAYQNYIKDLNIGSIDGIIEGHFHLKSGAKIPLNTPIYCPLPSFYYEQSLFKVSSSVLEPSQNKDA,not soluble
10,DPVFLDIFKSDKEDYEQRLRGAIREELNAFWQAKQPMIGLYLGEAMVGVACINSPDETLASDRFWHWRLKMLLNAGYFSTKQMMQKEHTVLAAVPLKIFHFLSFIAVHPLHQQHGFGHYLMAAVNTVLDEHPDSEGVAVYATSGKFKEFFKQVDYHTVKEVTVGNV,not soluble
11,MDLDADFLLLHLSDSALPTGAFAHSFGFETYMDAERITNAEEFQDWLKVLLKVQLTSSDALAMRMFYATPTVSELKRLDERLFAGTPAREIREANARMGTRMAEIVAETYSVPLIVEYLELIQHRELSGHPALALALATHSAGIDVDRAIHAHLTATVSSLIQNAVRGIPLGQMAGQRVMFAMREHIGAAVKRSANLDEIDFCSGDPGLDISQMVHETQRARLFMSLEHHHHHH,not soluble
12,SNAMILVPIDISDKEFTERIISHVESEARIDDAEVHFLTVIPSLPYYASLGMAYTAELPGMDELREGSETQLKEIAKKFSIPEDRMHFHVAEGSPKDKILALAKSLPADLVIIASHRPDITTYLLGSNAAAVVRHAECSVLVVR,soluble
13,MVEKIWFENHPLKYLLWPLLWPLSVLFGAISRSKRQQFQTGRKQAYQAPVPVVVVGNITAGGNGKTPVVVWLVEQLQHLGYKPGVVSRGYGAKAPQYPLVLNDDTPTQHCGDEPKLIHRRTGAPVAVDPVRANAVKALVELDVDIIITDDGLQHYALERDVELVIVDGNRRFGNECLIPLGPLREGVERLQEVDFIITNGGLAHQGEISMSLAPSKAINLKTKQQVDVSELKALVAFAGIGHPPRFFNTLESMHADVKVTKGFADHQDFDQKELEALALQGANVIMTEKDAVKCSDYAQDNWWYLPVSAQLEPKDAERILNRIKEVKATYGSPSAAAALEHHHHHH,soluble
14,GDTRPRFLQQDKYECHFFNGTERVRFLHRDIYNQEEDLRFDSDVGEYRAVTELGRPDAEYWNSQKDFLEDRRAAVDTYCRHNYGVGESFTVQRRVEPKVTVYPARTQTLQHHNLLVCSVNGFYPGSIEVRWFRNSQEEKAGVVSTGLIQNGDWTFQTLVMLETVPRSGEVYTCQVEHPSVTSPLTVEWRAQS,soluble
15,STVSEAYSPPLFSIAPMMGWTDNHYRTLARLITKHAWLYTEMLAAETIVYQEDNLDSFLAFSPDQHPIVLQIGGRNLENLAKATRLANAYAYDEINFNCGCPSPKVSGRGCFGALLMLDPKFVGEAMSVIAANTNAAVTVKCRIGVDDHDSYNELCDFIHIVSSLSPTKHFIIHSRKALLSGLSPSDNRRIPPLKCVQKVFLCPFA,soluble
16,GTSPIQTPINTMSQQYTLPPLPYPYDALQPYISQQIMELHHKKHHQTYVNGLNAALEAQKKAAEATDVPKLVSVQQAIKFNGGGHINHSLFWKNLAPEKSGGGKIDQAPVLKAAIEQRWGSFDKFKDAFNTTLLGIQGSGWGWLVTDGPKGKLDITTTHDQDPVTGAAPVFGVDMWEHAYYLQYLNDKASYAKGIWNVINWAEAENRYIAGDKGGHPFMKL,soluble
17,MGSDKIHHHHHHMKKQPLAYRMRPSNIDEVIGQQHLVGEGKIIRRMVDAGQLSSMILYGPPGVGKTSIAQAIAGSTDTHYKLLNAVVNNKKDMEIVVEEAKMSGQLILILDEVHRLDKGKQDFLLPHLEKGLLILIGATTANPFHSINPAIRSRCQIFELTPLTTDEIKVALTRALTDKTHGLGEEPVVISDEALAHFAFACGGDVRSALNGLELAVRSTQPNVKGEKEITLSVAEECIQRKSFHHDKDGDAHYDVLSAFQKSIRGSDVNAALHYLARLIEAGDLVSIGRRLLVIAYEDIGLANPQAGPRTLAAIEAAERLGFPEGRIPLANAVVELCLSPKSNSAYVALDAAIADIRKGHVGSVPAHLKDAHYKGAEQLGRGIGYKYPHDYERGWVKQQYLPDSLKSRAYYEPKRTGKFEDALADVYEKLRKSTFSKES,not soluble
18,MGSDKIHHHHHHMKVLEGIRVLDFGRFIAGPFCAALLADFGADVIRIDRVGGSEDRFVAPVTSEGEGAFFLQVNRNKRSITLDLDSEEGQAVVRKLLLNTDVVVANMPPRTIAALGLDYESLRKVKPDIILTASSAFGADPAVRDRVGFDGVGQAMSGAVHLTGLPDHPMKSMVPVVDFSTALCCALGTMMALYERKSSGQGQEVGASLLHTALTLSSGSLIEEALRGLNRQATVNRSPTYGPSDIFRVKDGWIIAQVIGPAMFKRWTRMVGRPELLDDPRFADDAMRGEHGEVLSDIMSDWCAGRTREEALAILEGARIPGGPVNTPRQALEDEVVRASGAFHGVDYPGAAAQVPLVATPVSLSRTAPAIARRPPTAGEHTEEVLRDAGYAPGEIVALRERGVI,not soluble
19,MVYSWQHCPNTRSNTEAMMAHDWDEYAANWEKDPATHAFAQSVFEHLTKILSLQGKHILDFGCGTGLLSQRMSPFARDIVALDSSEAMIEELDRKELRNVEPVVDCLTRGLVAQHPAFRKQFDLVVASSVCAFLPNLQDVTDIIFTLVDEGGYFVHFDWLADGKSEIGLSTTEIESVLRNAGFSAVETRVAFDVTTAQGTQPVVVGIARK,not soluble
20,MDTYKLILNGKTLKGETTTEAVDAATAEKVFKHYANEHGVHGHWTYDPETKTFTVTE,soluble
21,MSLKLLIFEYATASGIDDPEIFLEGRSMLEALLTDFRDFDVEFLLSERFADMDIGAGFRPSIIGDLDEWLQENLEGFDACIFIAAEEGMELYRLTRIVEESGVLLLGSSGDAVRTCSDKRLTYRALDGRVPLIGTYEPEEIVDVPSRLIVKPADGVACQGIRILEPGDEPDLSGDMIIQDFIEGESVSVSLLSNGEKALPLSLNRQDIIMAGSELEYNGGSAPVDHEMREDAFTVARRAVESITGLRGYVGVDLILADEPYVVEINSRITTPYIGLRRVTEANLGHLILESVLGRLPSGVKFNGTASFRKGIDGMVVEVTEGFRGYEGHHHHHH,soluble
22,MQLVVARIGRAHGIKGEVTVEVRTDEPELRLGPGAVLATDPASVGPLTIETGRVHSGRLLLRFEGVRDRNGAEALRNTLLIAEVDPDEVPEDPDEYYDHQLMDLDVVTKDGTEVGRITEISHLPSQDLFVVERSDGSEVYIPFVEEIVVEIDLEEQRAVIDPPPGLIDDRAEVDSSDTEAATEADALEHHHHHH,soluble
